Measured values as given in paper PMC6237807.

What was measured:
[1] = target: N-terminally Strep-tagII tagged wild-type QstR (Vibrio cholerae); assay: SEC; analytical SEC, Superdex 200 10/300 GL; 100 mM Tris-HCl pH 8.0, 300 mM NaCl, 1 mM EDTA; 0.5 ml/min; size estimated from a standard curve of protein standards
[2] = test system: H-NS (15 kDa) (Vibrio cholerae A1552 (A1552-TntfoX)); assay: DNA affinity pull-down, LC-MS/MS
[3] = test system: VCA0767 (TetR family transcriptional regulator, 29 kDa) (Vibrio cholerae A1552 (A1552-TntfoX)); assay: DNA affinity pull-down, LC-MS/MS
[4] = test system: NdpA nucleoid-associated protein (38 kDa) (Vibrio cholerae A1552 (A1552-TntfoX)); assay: DNA affinity pull-down, LC-MS/MS
[5] = test system: HupA, HU-alpha (9 kDa) (Vibrio cholerae A1552 (A1552-TntfoX)); assay: DNA affinity pull-down, LC-MS/MS

Row | Substance | stoichiometry N [1] | binding signal (total spectra) [2] | binding signal (total spectra) [3] | binding signal (total spectra) [4] | binding signal (total spectra) [5]
1 | N-terminally Strep-tagII tagged wild-type QstR (natural protein) | 2 |  |  |  | 
2 | comEA pull-down probe |  | 35 | 5 | 8 | 8
3 | gyrA pull-down probe |  | 16 | 0 | 6 | 8
4 | qstR pull-down probe |  | 185 | 0 | 10 | 26
